Data reported in patent publication US20050282743A1, “Molecular interactions in cells” (Arbor Vita Corporation, priority 2001, published 2005).
Read-outs that look alike come from different tables or passages of the source.

T1: GST-KIAA0973 PDZ domain 1 (Homo sapiens (Human)), Q9Y2H9
T1 chain: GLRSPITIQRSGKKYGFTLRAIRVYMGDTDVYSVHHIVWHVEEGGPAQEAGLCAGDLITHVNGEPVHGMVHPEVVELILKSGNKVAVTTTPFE

T2: GST-KIAA1526 PDZ domain 1 (Homo sapiens (Human)), Q9P202
T2 chain: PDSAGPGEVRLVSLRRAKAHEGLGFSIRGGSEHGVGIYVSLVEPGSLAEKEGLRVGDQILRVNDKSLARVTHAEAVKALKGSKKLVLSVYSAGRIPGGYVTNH

T3: GST-KIAA1634 PDZ domain 2 (Homo sapiens (Human)), Q5TCQ9
T3 chain: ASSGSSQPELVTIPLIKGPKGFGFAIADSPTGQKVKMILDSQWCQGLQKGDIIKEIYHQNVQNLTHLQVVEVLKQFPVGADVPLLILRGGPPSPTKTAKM

T4: GST-ERBIN PDZ domain 1 (Homo sapiens (Human)), Q96RT1
T4 chain: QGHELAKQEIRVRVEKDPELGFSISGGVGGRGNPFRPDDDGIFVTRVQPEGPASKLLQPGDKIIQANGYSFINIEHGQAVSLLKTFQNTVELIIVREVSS

T5: GST-INADL PDZ domain 8 (Homo sapiens (Human)), Q8NI35
T5 chain: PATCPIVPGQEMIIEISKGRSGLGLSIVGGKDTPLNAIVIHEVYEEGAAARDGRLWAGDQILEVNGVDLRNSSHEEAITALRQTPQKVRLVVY

T6: GST-PTPL1 PDZ domain 2 (Homo sapiens (Human)), Q12923
T6 chain: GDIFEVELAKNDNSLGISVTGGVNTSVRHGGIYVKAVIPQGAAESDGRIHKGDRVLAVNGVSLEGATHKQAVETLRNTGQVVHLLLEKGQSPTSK

T7: GST-NOS1 PDZ domain 1 (Homo sapiens (Human)), P29475
T7 chain: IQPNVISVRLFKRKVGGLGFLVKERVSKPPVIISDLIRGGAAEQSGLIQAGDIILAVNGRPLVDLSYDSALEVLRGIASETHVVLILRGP

T8: GST-NeDLG PDZ domain 2 (Rattus norvegicus (Rat)), Q62936
T8 chain: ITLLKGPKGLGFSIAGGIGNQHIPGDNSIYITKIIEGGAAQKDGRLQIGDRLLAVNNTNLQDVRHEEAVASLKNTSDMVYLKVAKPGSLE

T9: GST-MUPP1 PDZ domain 11 (Homo sapiens (Human)), O75970
T9 chain: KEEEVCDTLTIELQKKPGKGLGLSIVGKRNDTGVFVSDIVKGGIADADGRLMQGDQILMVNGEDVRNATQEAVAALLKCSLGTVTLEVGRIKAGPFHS

T10: GST-NeDLG PDZ domains 1, 2, Q92796
T10 chain: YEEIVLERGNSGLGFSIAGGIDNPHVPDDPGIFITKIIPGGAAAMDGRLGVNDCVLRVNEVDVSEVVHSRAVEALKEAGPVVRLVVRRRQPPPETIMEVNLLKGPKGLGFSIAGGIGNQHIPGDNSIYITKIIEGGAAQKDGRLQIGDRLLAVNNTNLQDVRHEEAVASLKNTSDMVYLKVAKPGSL

T11: GST-X-11 beta PDZ domain 2 (Rattus norvegicus (Rat)), O35431
T11 chain: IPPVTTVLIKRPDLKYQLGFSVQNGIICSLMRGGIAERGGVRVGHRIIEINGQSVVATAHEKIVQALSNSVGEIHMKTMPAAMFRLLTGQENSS

T12: GST-ZO-2 PDZ domain 2 (Homo sapiens (Human)), Q9UDY2
T12 chain: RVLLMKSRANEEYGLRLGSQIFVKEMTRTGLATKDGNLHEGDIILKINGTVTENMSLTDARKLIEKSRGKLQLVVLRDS

T13: GST-ZO-1 PDZ domain 2 (Rattus norvegicus (Rat)), A0A0G2
T13 chain: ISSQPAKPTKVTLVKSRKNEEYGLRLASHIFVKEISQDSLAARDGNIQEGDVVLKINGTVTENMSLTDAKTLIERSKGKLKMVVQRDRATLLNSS

T14: GST-SYNTENIN PDZ domain 1 (Homo sapiens (Human)), O00560
T14 chain: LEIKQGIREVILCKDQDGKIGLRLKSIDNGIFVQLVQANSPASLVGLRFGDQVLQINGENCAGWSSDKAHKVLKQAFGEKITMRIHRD

T15: GST-MINT1 PDZ domain 1 (Mus musculus (Mouse)), B2RUJ5
T15 chain: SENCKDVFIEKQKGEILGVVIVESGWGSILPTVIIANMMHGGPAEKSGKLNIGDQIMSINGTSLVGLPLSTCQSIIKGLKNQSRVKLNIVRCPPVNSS


Legend:
Experiment in all cases: G' assay
[1] = molecular target: T1, GST-KIAA0973 PDZ domain 1 (Homo sapiens …)
[2] = molecular target: T2, GST-KIAA1526 PDZ domain 1 (Homo sapiens …)
[3] = molecular target: GST-KIAA807 [GST: P08515]
GST-KIAA807 [GST: P08515], sequence (P08515 whole entry, the tested form may be a part): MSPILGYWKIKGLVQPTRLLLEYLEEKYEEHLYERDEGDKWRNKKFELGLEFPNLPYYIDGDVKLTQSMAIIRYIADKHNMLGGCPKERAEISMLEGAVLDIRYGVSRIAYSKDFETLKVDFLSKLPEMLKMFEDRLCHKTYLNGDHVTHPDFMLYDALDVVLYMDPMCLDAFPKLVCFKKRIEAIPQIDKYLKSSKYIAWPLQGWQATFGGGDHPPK

[4] = molecular target: T3, GST-KIAA1634 PDZ domain 2 (Homo sapiens …)
[5] = molecular target: GST-BAI-1 Associated Protein PDZ domain 5 (Homo sapiens (Human)), Q96QZ7
GST-BAI-1 Associated Protein PDZ domain 5 (Homo sapiens (Human)), Q96QZ7, sequence (Q96QZ7 988-1099): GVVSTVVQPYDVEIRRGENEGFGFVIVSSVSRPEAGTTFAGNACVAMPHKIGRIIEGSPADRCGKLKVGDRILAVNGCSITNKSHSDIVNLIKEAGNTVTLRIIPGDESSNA

[6] = molecular target: T4, GST-ERBIN PDZ domain 1 (Homo sapiens …)
[7] = molecular target: T5, GST-INADL PDZ domain 8 (Homo sapiens …)
[8] = molecular target: GST-DLG1 PDZ domains 1, 2 (Homo sapiens), Q12959
[9] = molecular target: T6, GST-PTPL1 PDZ domain 2 (Homo sapiens …)
[10] = molecular target: GST-DLG1 PDZ domain 1 (Homo sapiens), Q12959
[11] = molecular target: GST-Atrophin-1 Interacting Protein PDZ domain 3 (Rattus norvegicus (Rat)), O88382
GST-Atrophin-1 Interacting Protein PDZ domain 3 (Rattus norvegicus (Rat)), O88382, sequence (O88382 774-865, tags or fused parts left off): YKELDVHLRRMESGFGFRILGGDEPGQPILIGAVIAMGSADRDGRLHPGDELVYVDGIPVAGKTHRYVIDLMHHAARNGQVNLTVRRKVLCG

[12] = molecular target: T7, GST-NOS1 PDZ domain 1 (Homo sapiens …)
[13] = molecular target: T8, GST-NeDLG PDZ domain 2 (Rattus …)
[14] = molecular target: T9, GST-MUPP1 PDZ domain 11 (Homo sapiens …)
[15] = molecular target: T10, GST-NeDLG PDZ domains 1, 2, Q92796
[16] = molecular target: GST-KIAA1634 PDZ domain 4 (Homo sapiens (Human)), Q5TCQ9
GST-KIAA1634 PDZ domain 4 (Homo sapiens (Human)), Q5TCQ9, sequence (Q5TCQ9 844-945): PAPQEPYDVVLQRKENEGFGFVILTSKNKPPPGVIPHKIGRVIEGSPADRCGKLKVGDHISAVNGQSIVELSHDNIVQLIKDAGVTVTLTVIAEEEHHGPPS

[17] = molecular target: T11, GST-X-11 beta PDZ domain 2 (Rattus …)
[18] = molecular target: T12, GST-ZO-2 PDZ domain 2 (Homo sapiens …)
[19] = molecular target: T13, GST-ZO-1 PDZ domain 2 (Rattus …)
[20] = molecular target: T14, GST-SYNTENIN PDZ domain 1 (Homo sapiens …)
[21] = molecular target: T15, GST-MINT1 PDZ domain 1 (Mus musculus …)
[22] = molecular target: GST-TAX IP2 PDZ domain 1 [GST: P08515]
GST-TAX IP2 PDZ domain 1 [GST: P08515], sequence (P08515 whole entry, the tested form may be a part): as the sequence (P08515 whole entry, the tested form may be a part) above
Further: key of the grades not given here.

Row | Binder | Classification [1] [A450 class] | Classification [2] [A450 class] | Classification [3] [A450 class] | Classification [4] [A450 class] | Classification [6] [A450 class] | Classification [7] [A450 class] | Classification [8] [A450 class] | Classification [9] [A450 class] | Classification [10] [A450 class] | Classification [11] [A450 class] | Classification [12] [A450 class] | Classification [13] [A450 class] | Classification [14] [A450 class] | Classification [21] [A450 class] | further results
1 | PIPAGGCTFSGIFPTLTSPL (modifications not checked) [KIA 1481] | 2 | 2 | 5 | 1 |  |  |  |  |  |  |  |  |  |  | Classification [5]: 3 A450 class
2 | PYSELNYETSHYPASPDSWV (modifications not checked) [catenin - delta 2] |  | 2 | 4 |  | 4 | 2 | 3 | 5 | 1 | 1 |  |  |  |  | 
3 | VGTLLLERVIFPSVKIATLV (modifications not checked) [AdenoE4 typ9] |  |  | 4 | 5 |  | 2 | 5 | 3 | 4 | 4 | 5 | 5 | 5 |  | Classification [15]: 5 A450 class; Classification [16]: 4 A450 class
4 | ELLQFCRTPNPALKNGQYWV (modifications not checked) [CSPG4 (chondroitin sulfae proteoglycan 4, melanoma-associated)] |  |  | 1 |  | 3 | 3 |  |  |  | 2 | 2 |  | 5 | 2 | Classification [17]: 2 A450 class; Classification [18]: 1 A450 class; Classification [19]: 4 A450 class; Classification [20]: 2 A450 class
5 | ILNSIQVMRAQMNQIQSVEV (modifications not checked) [ephrin B2] | 2 | 3 | 2 | 1 |  |  |  | 2 |  | 1 |  | 2 | 2 | 1 | Classification [17]: 1 A450 class; Classification [18]: 1 A450 class; Classification [19]: 2 A450 class; Classification [20]: 1 A450 class
6 | QISPGGLEPPSEKHFRETEV (modifications not checked) [TAX] |  | 3 | 5 | 2 | 5 |  | 5 | 2 | 5 | 1 |  | 5 |  |  | Classification [22]: 2 A450 class; Classification [5]: 5 A450 class; Classification [15]: 5 A450 class; Classification [16]: 2 A450 class
7 | HDFRRAFKKILARGDRKRIV (modifications not checked) [alpha-2A Adrenergic receptor] |  | 4 |  |  |  |  |  | 2 |  |  |  |  |  | 1 | Classification [17]: 1 A450 class; Classification [18]: 2 A450 class; Classification [19]: 4 A450 class
8 | TQGFPGPATWRRISSLESEV (modifications not checked) [NMDA Glutamate Receptor 2C (cysteine-free)] | 1 | 3 | 4 | 3 | 4 | 1 | 5 | 5 | 5 | 2 | 1 | 5 |  |  | Classification [22]: 4 A450 class; Classification [5]: 4 A450 class; Classification [15]: 5 A450 class; Classification [16]: 1 A450 class
9 | KTMPAAMYRLLTAQEQPVYI (modifications not checked) [MINT-1] |  |  | 4 |  |  | 1 |  |  |  |  | 4 |  | 5 | 3 | Classification [20]: 3 A450 class
10 | VPGALDYAAFSSALYGESDL (modifications not checked) [a-actinin 2] | 2 | 1 | 5 |  | 1 |  | 1 | 1 |  |  |  |  |  |  | Classification [22]: 5 A450 class
11 | AWDDSARAAGGQGLHVTAL (modifications not checked) [LPAP] |  | 1 | 5 |  |  |  |  | 1 |  |  |  |  |  |  | Classification ([12]; remark: other sources report otherwise): 1 A450 class
